Assay results as given in patent US20190315864A1.

Molecular target: Mouse CTLA4-Fc protein (mouse)
Assay: ELISA, control VHH coated 0.5 µg/well, mouse CTLA4-Fc (biotinylated), SA-HRP; blank 0.027

Chain of Mouse CTLA4-Fc protein (mouse) (chain, as listed by the source limits assumed): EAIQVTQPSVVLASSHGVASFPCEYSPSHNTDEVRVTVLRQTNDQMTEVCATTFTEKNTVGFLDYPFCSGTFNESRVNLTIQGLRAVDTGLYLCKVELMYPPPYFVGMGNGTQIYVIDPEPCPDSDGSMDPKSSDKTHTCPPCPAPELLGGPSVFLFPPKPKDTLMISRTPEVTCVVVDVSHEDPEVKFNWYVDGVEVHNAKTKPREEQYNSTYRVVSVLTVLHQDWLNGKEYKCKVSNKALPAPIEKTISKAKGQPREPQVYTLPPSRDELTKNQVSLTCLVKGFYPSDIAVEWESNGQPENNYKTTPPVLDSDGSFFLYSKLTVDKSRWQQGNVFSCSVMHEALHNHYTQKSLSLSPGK

Substance: single domain antibody against other unrelated target (control) (VHH)
- OD (against mouse CTLA4): 0.026 OD405
